Consider 8 molecules from patent US20250101098A1 (R P SCHERER TECHNOLOGIES, published 2025).

Substitutions are numbered along the chain they refer to. Names may count otherwise.

To fix the notation:
T1: human nectin-4 protein expressed on the surface of cells (human, UniProt Q96NY8 32-510)
T1 construct: also called HEK 293 cells overexpressing human nectin-4; HekNectin4
T1 sequence: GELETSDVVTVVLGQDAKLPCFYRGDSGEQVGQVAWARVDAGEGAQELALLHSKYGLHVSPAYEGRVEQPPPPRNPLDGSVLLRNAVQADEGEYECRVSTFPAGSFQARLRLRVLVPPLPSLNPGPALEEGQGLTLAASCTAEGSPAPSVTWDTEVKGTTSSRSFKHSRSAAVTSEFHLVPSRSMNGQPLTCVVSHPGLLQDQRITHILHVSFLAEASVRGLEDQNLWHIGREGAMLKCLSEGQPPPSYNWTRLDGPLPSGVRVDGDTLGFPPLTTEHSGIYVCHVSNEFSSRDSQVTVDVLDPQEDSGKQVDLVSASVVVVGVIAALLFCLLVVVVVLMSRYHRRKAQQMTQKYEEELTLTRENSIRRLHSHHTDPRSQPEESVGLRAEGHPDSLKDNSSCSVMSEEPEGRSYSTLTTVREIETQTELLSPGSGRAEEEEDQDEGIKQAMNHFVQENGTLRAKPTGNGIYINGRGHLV

T2: cynomolgus monkey nectin-4 protein expressed on the surface of HEK 293 cells (cynomolgus monkey, UniProt A0A2K5WES1 32-510)
T2 construct: whole, on cells
T2 sequence: T1 sequence with V39A, I230V, A437T

T3: mouse nectin-4 protein expressed on the surface of HEK 293 cells (mouse, UniProt Q8R007 31-508)
T3 construct: whole, on cells
T3 sequence (looked up): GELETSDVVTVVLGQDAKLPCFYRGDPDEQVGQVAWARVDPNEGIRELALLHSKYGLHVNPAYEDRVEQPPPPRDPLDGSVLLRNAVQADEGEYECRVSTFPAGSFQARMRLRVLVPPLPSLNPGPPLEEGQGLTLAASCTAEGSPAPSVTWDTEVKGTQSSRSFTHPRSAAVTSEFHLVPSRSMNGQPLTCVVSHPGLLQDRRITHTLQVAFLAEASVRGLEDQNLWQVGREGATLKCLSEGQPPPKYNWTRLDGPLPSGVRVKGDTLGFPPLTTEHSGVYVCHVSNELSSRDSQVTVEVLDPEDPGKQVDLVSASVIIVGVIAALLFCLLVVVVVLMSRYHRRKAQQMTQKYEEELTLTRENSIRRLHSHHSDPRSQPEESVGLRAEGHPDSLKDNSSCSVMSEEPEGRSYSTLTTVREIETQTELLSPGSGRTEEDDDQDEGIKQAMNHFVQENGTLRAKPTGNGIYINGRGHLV

T4: rat nectin-4 protein expressed on the surface of HEK 293 cells (rat, UniProt D3ZET1 31-509)
T4 construct: whole, on cells
T4 sequence: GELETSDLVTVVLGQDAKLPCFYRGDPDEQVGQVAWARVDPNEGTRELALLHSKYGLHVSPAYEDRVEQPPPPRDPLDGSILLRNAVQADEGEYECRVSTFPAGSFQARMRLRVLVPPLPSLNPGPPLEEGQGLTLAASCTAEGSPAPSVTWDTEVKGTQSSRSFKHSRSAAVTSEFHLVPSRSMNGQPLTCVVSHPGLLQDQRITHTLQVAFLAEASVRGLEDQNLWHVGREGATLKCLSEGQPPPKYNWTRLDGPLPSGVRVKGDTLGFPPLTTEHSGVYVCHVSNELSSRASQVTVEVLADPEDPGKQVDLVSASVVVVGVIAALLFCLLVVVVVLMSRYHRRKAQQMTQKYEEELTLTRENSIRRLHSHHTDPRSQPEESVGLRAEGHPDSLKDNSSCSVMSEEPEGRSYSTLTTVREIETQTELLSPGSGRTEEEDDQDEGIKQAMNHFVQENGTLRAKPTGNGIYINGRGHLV

T5: recombinant human Nectin-4-His protein (human, UniProt Q96NY8 32-349)
T5 construct: Rescreening antigen and bought ELISA antigen are treated as one molecule; also called human Nectin-4-His tagged; Ag1; not shown: His tag
T5 sequence: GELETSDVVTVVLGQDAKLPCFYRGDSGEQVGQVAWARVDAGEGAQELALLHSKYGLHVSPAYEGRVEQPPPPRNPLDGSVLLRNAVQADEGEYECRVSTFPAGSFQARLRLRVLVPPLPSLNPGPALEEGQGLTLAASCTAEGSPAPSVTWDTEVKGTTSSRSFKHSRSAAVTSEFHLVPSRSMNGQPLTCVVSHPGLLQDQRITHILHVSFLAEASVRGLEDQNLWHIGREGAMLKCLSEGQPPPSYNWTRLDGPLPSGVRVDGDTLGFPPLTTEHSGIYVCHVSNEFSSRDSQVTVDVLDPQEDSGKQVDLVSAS

T6: cynomolgus Nectin-4 His tagged (cynomolgus, UniProt A0A2K5WES1 32-349)
T6 construct: also called Ag2
T6 sequence: T5 sequence with V39A, I230V

B1: Nectin-4 Hybridoma 6C8H/6C8L (recombinant chimeric antibody) (antibody, V domains shown)
VH: QVQLKQSGPGLVQPSQSLSITCTVSGFSLSTYGVHWVRQSPGKGLEWLGVIWSGGSTDYNAAFISRLTISKDNSKSQIFFKMNSLQADDTAIYYCARMMSWYFDVWGTGTTVTVSS
VL: DIVMTQSQKFMSTSVGDRVSVTCKASQNVVTNVAWYQQKPGQSPKALIYSASYRYSGVPDRFTGSGSGTDFTLTISNVQSEDLAEYFCQQYNSYPLTFGAGTKLELK
B2: Nectin-4 3C12H/3C12L (recombinant chimeric antibody) (antibody, V domains shown)
VH: B1 VH with S30T, S56N, T68S, I78V, M99T, S100H
VL: B1 VL with S14T, V21I, N32A, A46L, Y53N, S56T, N77Y, V78M, E85D, N92S
B3: Nectin-4 12E11H/12E11L (recombinant chimeric antibody) (antibody, V domains shown)
VH: B1 VH with S30T, Y59C, A61G, T68S, S70I, I78V, M99T, S100H
VL: B1 VL with S14T, V21I, V30N, N32A, A46L, S56T, V78M, E85D, N92S, S93N
notes: also called parental 12E11 clone
B4: Nectin-4 7 E8H/7 E8L (recombinant chimeric antibody) (antibody, V domains shown)
VH: B1 VH with S30A, T68S, I78V, M98N, M99S, S100H
VL: B1 VL with N77H, Q89H, S93N, L96Y, A100G, L106I
B5: Nectin-4 7H10H/7H10L (recombinant chimeric antibody) (antibody, V domains shown)
VH: QVQLQQPGAELVKPGASVKLSCKASGYTFTTYWMHWVKQRPGRGLEWIGGIDPYGAHIKYNEMFKTKATLTVDKPSSTAYMQLSSLTSEDSAVYYCARGDYSNWWWTYWGQGTLVTVSA
VL: DIVMTQSQKFMSTTVGDRVSITCKASQNVGTAVAWYQQIPGQSPKLLIYSASNRYTGVPDRFTGSGSGTDFTLTITNMQSEDLADYFCQHYSSYPWTFGGGTKLEIK
B6: Nectin-4 Hybridoma 6C8H/6C8L (hybridoma supernatant) (antibody, V domains shown)
VH: B1 VH
VL: B1 VL
notes: Mouse antibody in hybridoma supernatant
B7: Nectin-4 7 E8H/7 E8L (hybridoma supernatant) (antibody, V domains shown)
VH: B1 VH with S30A, T68S, I78V, M98N, M99S, S100H
VL: B1 VL with N77H, Q89H, S93N, L96Y, A100G, L106I
notes: as for B6
B8: Nectin-4 7H10H/7H10L (hybridoma supernatant) (antibody, V domains shown)
VH: B5 VH
VL: B5 VL
notes: as for B6

The target of the first test is T1, human nectin-4 protein expressed on the …. The test can be described thus: flow cytometry, HEK 293 cells overexpressing the target. The protocol: (§1) Human embryonic kidney (HEK) 293 cells overexpressing human, cynomolgus monkey, rat, or mouse nectin-4 protein were produced. Cells were lifted with Versene to preserve cell surface proteins and were resuspended at 10e6/mL in PBS+2% FBS. 100 μl was added to a flow tube to test […]. Primary antibodies were diluted to […] and 10 μL was added for a total of 1 μg/test. Primary antibodies (or ADCs) were incubated with cells for 1 h on ice. Then, cells were washed 1× in 2 mL PBS+2% FBS and secondary antibody was added for detection. AF488-conjugated anti-human antibody from Jackson Immunoresearch, diluted according to the manufacturer's instructions+50% glycerol, was used at 1 μL/test-diluted to ⅕ the concentration in PBS+2% FBS and 5 μL were added per tube. The secondary reagent was incubated with the cells for 30 min, then cells were washed 2× in PBS+2% FBS and analyzed by flow cytometry on a BD FacsCanto instrument equipped with FACSDiva software.
(§2) Lead clones were tested for binding to human, cynomolgus monkey, rat, or mouse nectin-4 protein expressed on the surface of HEK 293 cells. Enfortumab was included as a positive control and an anti-FITC reactive antibody was included as a negative control.
A general note: A flow cytometer gives signals particle by particle.
Consider B1, for which the Flow data came out at 10200.
The same measure, in the same setting: under B2 stands 8370.
Still for that read-out and setting: next, B3: 8620.
On the same count and under the same terms, under B4 stands 9200; under B5, 12300.

For the next test, the target named is T2, cynomolgus monkey nectin-4 protein …. The test is described as above. The protocol: as §1, §2
In the case of B1, the Flow data is 11400.
Consider B2, for which the Flow data was 10600.
On the same count and under the same terms, under B3 stands 10400.
Still for that read-out and setting: under B4 stands 10400; under B5, 14100.

The target in the next test is T3, mouse nectin-4 protein expressed on the …. Described as above. The protocol:
as §1, §2
In turn, B1 came in with a Flow data of 194.
Same read-out and setting: next, B2: 328; B3: 230.
As to B4, the Flow data worked out at 279.

The target in another test is T4, rat nectin-4 protein expressed on the …. Described as above. The protocol:
as §1, §2
B1 returned a Flow data of 8920.
Still for that read-out and setting: under B2 stands 5060.
Same read-out and setting: next, B3: 1900.
For the molecule B4, the Flow data is 5970.

In another test the target is T5, recombinant human Nectin-4-His protein. Kind of test: ELISA, hybridoma supernatant.
In the case of B6, the ELISA signal was found to be 3.16.
The same measure, in the same setting: next, B7: 3.11.
The same measure, in the same setting: under B8 stands 3.26.

In the next test the target is T6, cynomolgus Nectin-4 His tagged. The test can be described thus: ELISA, hybridoma supernatant. (In general: In an ELISA, binding on a coated surface is turned into a signal by an enzyme label.)
With B6, the ELISA signal came out at 3.4.
The molecule B7 had an ELISA signal of 3.44.
Still for that read-out and setting: next, B8: 3.49.

Another test deals with T1, human nectin-4 protein expressed on the …. The test can be described thus: cell-based or functional assay.
For the molecule B1, the “IC50, in vitro potency, HEK Cells + Nectin-4” value (from here on “IC50, in vitro potency”) was 0.573 nM.
Take B2: the “IC50, in vitro potency” value was 0.919 nM.
Same read-out and setting: under B3 stands 0.987 nM.
Still for that read-out and setting: under B4 stands 0.89 nM.
Regarding B5, the “IC50, in vitro potency” value amounted to 0.549 nM.

A further test has as its target T5, recombinant human Nectin-4-His protein. Kind of test: ELISA, recombinant antibody on coated antigen.
Consider B1, for which the EC50 amounted to 0.239 nM.
The same measure, in the same setting: next, B2: 0.282 nM.
Same read-out and setting: under B3 stands 0.252 nM; under B4, 0.361 nM; under B5, 0.21 nM.

As usually defined, the EC50 is the midpoint of the concentration-response curve.
